B1: Parabutoporin (Parabuthus schlechteri), P83312 (parent)
chain: FKLGSFLKKAWKSKLAKKLRAKGKEMLKDYAKGLLEGGSEEVPGQ

Variants of: B1
Settings: with kpca_human PRKCA

Variant	effect of a mutation on the interaction
FKLGAFLKKAWKAKLAKKLRAKGKEMLKDYAKGLLEGGSEEVPGQ [S5A;S13A]	disrupting interaction

Source: IntAct's records for PubMed 17069809
